Measurements taken from patent US20220169693A1, “Screening Assays, Modulators and Modulation of Intracellular Signalling Mediated by Immunoglobulin Superfamily Cell Adhesion Molecules” (Monash University, priority 2018, published 2022).

Tests used:
[1] = target: T1, cytosolic tail of human EpCAM, EpCAM289-314 (Homo sapiens, UniProt P16422); test: Ang II-induced p65 expression in AT1R-CHO cells transfected with cytosolic tail of EpCAM; type: cell-based; details: Ang II 1 μM, co-transfection (FIG. 3J)
T1 construct: corresponds to residues 289-314 of EpCAM plus an initiating Methionine; initiating Methionine (N); expressed in transfected cells; host or cells: AT1R-CHO (CHO stably transfected with human AT1R-Rluc8), transient transfection
T1 sequence (P16422 with tags, fused parts or gaps limits assumed): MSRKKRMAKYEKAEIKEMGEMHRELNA
Description: (§1) Adult retinal pigment epithelial (ARPE) cells were cultured in Dulbecco's modified Eagle's medium (DMEM)/F12 endothelial cell growth supplement (ECGS) supplemented media. Chinese Hamster Ovary (CHO) cells were cultured using F12 media (10% FCS with 2 mM glutamine). Human microvascular endothelial cells (HMEC) were cultured in MCDB 131 medium (10% FCS with 10 mM glutamine, EGF and hydrocortisone).
(§2) 100 ng of AT1R-Rluc8 construct was transfected into CHO cells using Lipofectamine 2000 (Thermo). Stable transfectants were selected using G418. AT1R-CHO were then transiently transfected with the IgSF CAM and/or RAGE constructs using Lipofectamine 2000 (Invitrogen) and incubated for 16h.
(§3) After 2 hours of exposure to Ang II (1 μM) cells were placed in Trizol, mRNA extracted and cDNA synthesized. Changes in the gene expression of the NFκB subunit, p65 (RelA) or NFκB-activated target genes (e.g ICAM-1) were estimated by quantitative real-time RT-PCR, performed using the TaqMan system based on real-time detection of accumulated fluorescence (ABI Prism 7700, Perkin-Elmer Inc, PE Biosystems, Foster City, Calif., USA). Gene expression was normalized to 18S mRNA and reported as fold change compared to the level of expression in untreated control mice/cells, which were given an arbitrary value of 1.

full length RAGE1-404 = full length RAGE1-404 (Homo sapiens, UniProt Q15109); test: Ang II-induced p65 expression in AT1R-CHO cells transfected with full length human RAGE; type: cell-based; design: expressed in transfected cells; host or cells: AT1R-CHO (CHO stably transfected with human AT1R-Rluc8), transient transfection; details: Ang II 1 μM 2 h, co-transfection (FIG. 6A)
Chain of full length RAGE1-404 (Q15109 23-404): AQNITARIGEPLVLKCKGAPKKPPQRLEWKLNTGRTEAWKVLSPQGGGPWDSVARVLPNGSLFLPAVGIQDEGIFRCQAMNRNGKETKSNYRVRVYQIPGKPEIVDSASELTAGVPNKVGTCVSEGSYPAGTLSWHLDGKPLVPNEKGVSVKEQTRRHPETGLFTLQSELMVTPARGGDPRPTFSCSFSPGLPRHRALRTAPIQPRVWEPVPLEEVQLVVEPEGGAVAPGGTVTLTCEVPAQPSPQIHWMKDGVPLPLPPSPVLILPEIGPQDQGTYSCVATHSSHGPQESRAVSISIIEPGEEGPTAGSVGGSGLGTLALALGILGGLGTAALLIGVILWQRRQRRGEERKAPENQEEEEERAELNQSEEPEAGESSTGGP
Description: as §1, §2, §3

AT1R-CHO cells = test: p65 expression in AT1R-CHO cells expressing the truncated construct alone; type: cell-based, Chinese Hamster; details: AT1R-CHO cells, Ang II 1 μM (FIG. 3A, 5A, 5B)
Description: as §1, §2
(§4) Oligonucleotides were designed and ordered to generate the ALCAM, BCAM and MCAM intracellular (cytosolic) domains. These included a 5′ NheI site, Kozak sequence and initiating Methionine and then DNA sequences corresponding to ALCAM residues 552-583, BCAM residues 569-628 and MCAM residues 584-637 respectively (Note that as residue 551 of ALCAM is Methionine, the cytosolic tail of ALCAM effectively corresponded to residues 551-583). The pCIneo parental vector was digested with NheI and NotI restriction enzymes, and the DNA of the fragments of the ALCAM, BCAM and MCAM tails/cytosolic domains were ligated into the digested plasmid. After transformation and recovery, colonies were screened and individual clones sequenced. The sequence of the insert was confirmed by DNA sequencing (Micromon, Monash University). A full-length clone of Mouse ALCAM (BC027280) was purchased from Origene. The untagged clone was supplied in the vector pCMV6. Overlapping DNA sequences were ordered to generate the ALCAM559-580 fragment oligonucleotide. These included a 5′ NheI site, Kozak sequence and initiating Methionine and then DNA sequences corresponding to ALCAM residues 559-580. The pCIneo parental vector was digested with NheI and NotI restriction enzymes, and the ALCAM559-580 construct DNA was ligated into the digested plasmid. After transformation and recovery, colonies were screened and individual clones sequenced.
as §3

[2] = tested on: human ALCAM (ALCAM1-583, cytosolic tail ALCAM551-583); test: Ang II-induced p65/PCNA expression in AT1R-CHO cells transfected with human ALCAM (full length or cytosolic tail); type: cell-based; details: Ang II 1 μM, co-transfection, text: cytosolic tail ALCAM551-583, legend: full length ALCAM1-583
Description: as §1, §2, §4, §3

[3] = target: T2, human ALCAM (ALCAM1-583, cytosolic tail ALCAM551-583) (Homo sapiens, UniProt Q13740); test: as above; type: cell-based; details: Ang II 1 μM, co-transfection (FIG. 3G, 1E)
T2 construct: expressed in transfected cells; host or cells: AT1R-CHO (CHO stably transfected with human AT1R-Rluc8), transient transfection
T2 sequence (Q13740 551-583): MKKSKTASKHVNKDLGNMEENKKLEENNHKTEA
Description: as §1, §2, §4, §3

[4] = target: T3, cytosolic tail of BCAM, BCAM569-628 (Homo sapiens, UniProt P50895); test: Ang II-induced p65 expression in AT1R-CHO cells transfected with cytosolic tail of BCAM; type: cell-based; design: corresponds to residues 569-628 of BCAM plus an initiating Methionine; initiating Methionine (N); expressed in transfected cells; host or cells: AT1R-CHO (CHO stably transfected with human AT1R-Rluc8); insert in pCIneo; details: Ang II 1 μM, co-transfection (FIG. 3H)
T3 sequence (P50895 with tags, fused parts or gaps): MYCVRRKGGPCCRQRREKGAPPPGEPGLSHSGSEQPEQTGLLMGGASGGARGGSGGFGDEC
Description: as §1, §2
Oligonucleotides were designed and ordered to generate the ALCAM, BCAM and MCAM intracellular (cytosolic) domains. […]
as §3, with “Gene expression was normalized to 18S mRNA and reported as fold change compared to the level of expression in untreated control mice/cells, which were given an arbitrary value of 1.” left out

induction of p65-NFκB expression by Ang II via transactivation of EpCAM289-314 [1]: prevents induction
induction of p65 expression mediated by full length human RAGE1-404 transactivated by AT1 receptor (full length RAGE1-404): inhibits
induction of p65-NFκB expression by Ang II via transactivation of the cytosolic tail of human ALCAM, ALCAM551-583 [3]: prevents induction
induction of p65-NFκB expression by Ang II via transactivation of BCAM569-628 [4]: prevents induction
Sequence: MKHVNKDLGNMEENKKLEENNHK [ALCAM559-580]
induction of p65 expression by Ang II when the construct alone is expressed (AT1R-CHO cells): failed to increase the expression of p65
induction of p65-NFκB expression by Ang II via transactivation of human ALCAM (FIG. 3E) [2]: prevents induction
p65-NFκB dependent induction of PCNA expression by Ang II via human ALCAM (FIG. 3F) [2]: prevents induction
